Assay results as given in US20090155251A1 (published 2009).
Blank lines part the entries; values can stand above or below the binder they belong to.

Experiments:
[1] = molecular target: T1, Mouse EphB4/Fc (R&D Systems) (mouse, UniProt P54761 16-539, limits assumed); test: immunofluorescence on frozen KS biopsy sections, 5 ug/ml EphB4/Fc
T1 construct: Bought reagent; also called EphB4/Fc fusion protein; not shown: Fc part, detected with anti-human Fc/IgG-FITC
T1 sequence (looked up): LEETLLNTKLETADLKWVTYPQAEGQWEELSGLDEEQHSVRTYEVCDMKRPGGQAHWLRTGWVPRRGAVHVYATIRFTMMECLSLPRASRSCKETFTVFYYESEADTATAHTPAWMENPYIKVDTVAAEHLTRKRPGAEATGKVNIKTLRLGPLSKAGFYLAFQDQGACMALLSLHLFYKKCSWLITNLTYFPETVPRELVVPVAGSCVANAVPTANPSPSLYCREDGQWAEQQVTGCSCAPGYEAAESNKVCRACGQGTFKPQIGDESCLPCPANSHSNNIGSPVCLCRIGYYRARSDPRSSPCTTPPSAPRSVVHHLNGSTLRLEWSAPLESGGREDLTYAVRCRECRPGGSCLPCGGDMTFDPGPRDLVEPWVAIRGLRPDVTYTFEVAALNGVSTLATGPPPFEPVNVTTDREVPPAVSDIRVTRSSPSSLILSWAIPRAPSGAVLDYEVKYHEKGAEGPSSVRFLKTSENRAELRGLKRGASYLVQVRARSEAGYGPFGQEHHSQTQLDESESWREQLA
Protocol: Immunofluorescence detection of EphrinB2 with EPHB4-Fc was done as follows. Frozen sections fixed in 4% paraformaldehyde and blocked with 20% FBS were incubated with 5 μg/ml EphB4/Fc (R&D Systems) for 1 h at RT. Sections were then incubated with 10 μg/ml rabbit anti-human IgG-FITC in PBS (Jackson ImmunoResearch Laboratories West Grove, Pa.) at RT for 1 hour. Nuclei were counterstained with DAPI and sections mounted as above. Human Fc (Jackson ImmunoResearch) was used as the negative control.

[2] = molecular target: T2, B4EC-NT (soluble EphB4 extracellular domain without epitope or purification tags) (human, UniProt P54760 16-539); test: B2EC-AP binding and competition assays on conditioned media of stable cell lines
T2 construct: extracellular domain; also called EphB4ECnt; B4ECv3NT
T2 sequence (looked up): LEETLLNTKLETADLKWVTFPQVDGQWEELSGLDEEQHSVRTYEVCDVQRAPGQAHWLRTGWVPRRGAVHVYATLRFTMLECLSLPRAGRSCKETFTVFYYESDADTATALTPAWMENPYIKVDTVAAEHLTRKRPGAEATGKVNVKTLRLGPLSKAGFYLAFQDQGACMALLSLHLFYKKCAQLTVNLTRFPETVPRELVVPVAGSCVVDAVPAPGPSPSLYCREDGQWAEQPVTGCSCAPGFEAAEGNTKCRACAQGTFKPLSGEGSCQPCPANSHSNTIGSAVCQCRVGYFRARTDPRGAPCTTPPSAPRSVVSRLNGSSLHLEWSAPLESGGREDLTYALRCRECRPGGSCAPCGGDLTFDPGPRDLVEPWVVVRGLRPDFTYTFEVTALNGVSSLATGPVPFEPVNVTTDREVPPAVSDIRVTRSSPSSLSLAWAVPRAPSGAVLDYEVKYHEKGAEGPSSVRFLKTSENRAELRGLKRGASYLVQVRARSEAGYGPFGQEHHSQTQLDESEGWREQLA

[3] = molecular target: T3, B4-GCF2 (recombinant soluble EphB4 extracellular domain: globular, Cys-rich and two FNIII domains, C-terminal … (human, UniProt P54760 16-537)); test: Ephrin B2-AP binding to B4 proteins immobilized on Ni resin or nitrocellulose membrane
T3 construct: Expressed in HEK293T, glycosylated
T3 sequence: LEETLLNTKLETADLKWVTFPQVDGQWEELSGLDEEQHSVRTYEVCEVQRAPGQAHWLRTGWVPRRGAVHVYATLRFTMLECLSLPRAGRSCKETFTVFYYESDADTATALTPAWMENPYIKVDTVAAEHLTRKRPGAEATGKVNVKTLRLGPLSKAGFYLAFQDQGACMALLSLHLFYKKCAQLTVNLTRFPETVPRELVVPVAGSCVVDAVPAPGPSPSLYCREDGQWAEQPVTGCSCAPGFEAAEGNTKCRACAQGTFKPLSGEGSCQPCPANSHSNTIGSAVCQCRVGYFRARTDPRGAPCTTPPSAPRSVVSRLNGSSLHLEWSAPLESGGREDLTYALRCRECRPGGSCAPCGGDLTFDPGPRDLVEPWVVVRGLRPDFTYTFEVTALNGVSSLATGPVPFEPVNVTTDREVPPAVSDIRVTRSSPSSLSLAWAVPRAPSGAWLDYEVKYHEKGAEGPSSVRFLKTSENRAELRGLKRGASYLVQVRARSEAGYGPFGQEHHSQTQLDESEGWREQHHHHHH
Protocol: (§1) To confirm ability of the purified recombinant proteins to bind Ephrin B2, they were tested in an in vitro binding assay. As expected, GC, GCF1 and GCF2, but not CF2 are binding the cognate ligand Ephrin B2 as confirmed by interaction between Ephrin B2—alkaline phosphatase (Ephrin B2-AP) fusion protein with the B4 proteins immobilized on Ni²⁺-resin or on nitrocellulose membrane (FIG. 17).
(§2) To test ligand binding properties of the proteins, 10 μl of Ni-NTA-Agarose (Qiagen) were incubated in microcentrifuge tubes with 10-500 ng sample of a B4-ECD protein diluted in 0.5 ml of binding buffer BB (20 mM Tris-HCl, 0.15 M NaCl, 0.1% bovine serum albumin, pH 8). After incubation for 30 min on shaking platform, Ni-NTA beads were washed twice with 1.4 ml of BB, followed by addition of B2-AP fusion protein at concentration of 50 nM. Binding was performed for 30 min on a shaking platform. Tubes were centrifuged and washed once with 1.4 ml of BB. Amount of precipitated AP was measured colorimetrically at 420 nm after application of p-nitrophenyl phosphate (PNPP) and incubation for 5-30 min.

[4] = molecular target: T4, B4-GC (EphB4 globular domain + Cys-rich domain, C-terminal 6xHis) (human, UniProt P54760 16-326); test: as above
T4 construct: Printed mature EphB4 part counts 311 residues, the text says 1-312; also called B4EC-GC
T4 sequence: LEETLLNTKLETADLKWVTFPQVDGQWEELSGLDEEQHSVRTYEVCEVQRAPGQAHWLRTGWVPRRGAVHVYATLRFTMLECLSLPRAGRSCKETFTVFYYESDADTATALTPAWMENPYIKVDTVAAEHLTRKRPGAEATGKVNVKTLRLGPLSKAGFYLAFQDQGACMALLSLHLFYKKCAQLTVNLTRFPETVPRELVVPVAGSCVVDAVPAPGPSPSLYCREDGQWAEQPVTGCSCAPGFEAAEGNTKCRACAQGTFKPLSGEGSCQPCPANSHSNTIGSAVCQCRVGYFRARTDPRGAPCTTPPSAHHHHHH
Protocol: as §1, §2

[5] = molecular target: T5, B4-CF2 (EphB4 extracellular domain with deleted globular domain: Cys-rich and two FNIII domains, V5 and 6xHis … (human, UniProt P54760 16-537)); test: as above
T5 sequence: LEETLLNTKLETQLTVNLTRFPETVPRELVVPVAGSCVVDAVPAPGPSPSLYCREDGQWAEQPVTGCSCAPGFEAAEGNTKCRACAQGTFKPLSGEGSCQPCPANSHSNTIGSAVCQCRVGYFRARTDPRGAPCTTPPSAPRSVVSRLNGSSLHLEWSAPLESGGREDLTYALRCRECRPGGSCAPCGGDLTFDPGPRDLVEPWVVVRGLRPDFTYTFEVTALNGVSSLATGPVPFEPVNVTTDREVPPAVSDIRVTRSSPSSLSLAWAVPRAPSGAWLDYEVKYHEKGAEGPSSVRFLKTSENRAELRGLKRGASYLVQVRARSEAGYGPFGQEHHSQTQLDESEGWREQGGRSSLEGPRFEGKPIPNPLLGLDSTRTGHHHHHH
Protocol: as §1, §2

[6] = molecular target: T6, B4ECv3 (soluble EphB4 extracellular domain with C-terminal V5 epitope tag and 6xHis tag) (human, UniProt P54760 16-537); test: biochemical assays: Ni-NTA bead binding of B2-AP; inhibition in solution and cell based
T6 construct: also called EphB4ECv3; GCF2 (v.3)
T6 sequence: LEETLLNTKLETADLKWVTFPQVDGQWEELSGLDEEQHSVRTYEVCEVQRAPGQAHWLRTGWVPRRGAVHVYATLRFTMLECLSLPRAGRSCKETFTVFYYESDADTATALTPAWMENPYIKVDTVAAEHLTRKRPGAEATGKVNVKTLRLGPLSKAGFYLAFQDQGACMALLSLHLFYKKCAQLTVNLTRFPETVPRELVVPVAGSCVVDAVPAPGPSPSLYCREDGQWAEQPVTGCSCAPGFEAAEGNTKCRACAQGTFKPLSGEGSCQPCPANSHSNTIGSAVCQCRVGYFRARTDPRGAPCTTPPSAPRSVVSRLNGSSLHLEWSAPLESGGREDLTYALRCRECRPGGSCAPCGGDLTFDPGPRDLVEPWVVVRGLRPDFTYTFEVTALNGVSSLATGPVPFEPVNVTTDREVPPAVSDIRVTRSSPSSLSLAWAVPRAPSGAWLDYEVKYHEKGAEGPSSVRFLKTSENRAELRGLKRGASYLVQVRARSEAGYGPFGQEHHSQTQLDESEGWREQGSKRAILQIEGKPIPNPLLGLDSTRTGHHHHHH
Protocol: 10 μl of Ni-NTA-Agarose were incubated in microcentrifuge tubes with 50 μl of indicated amount of B4ECv3 diluted in binding buffer BB (20 mM Tris-HCl, 0.15 M NaCl, 0.1% bovine serum albumin pH 8) After incubation for 30 min on shaking platform, Ni-NTA beads were washed twice with 1.4 ml of BB, followed by application of 50 μl of B2-AP in the final concentration of 50 nM. Binding was performed for 30 min on shaking platform, and then tubes were centrifuged and washed one time with 1.4 ml of BB. Amount of precipitated AP was measured colorimetrically after application of PNPP.
Inhibition in solution. Different amounts of B4ECv3 diluted in 50 μl of BB were pre-incubated with 50 μl of 5 nM B2EC-AP reagent (protein fusion of Ephrin B2 ectodomain with placental alkaline phosphatase). After incubation for 1 h, unbound B2EC-AP was precipitated with 5,000 HEK293 cells expressing membrane-associated full-length EphB4 for 20 min. Binding reaction was stopped by dilution with 1.2 ml of BB, followed by centrifugation for 10 min. Supernatants were discarded and alkaline phosphatase activities associated with collected cells were measured by adding para-nitrophenyl phosphate (PNPP) substrate.
Cell based inhibition. B4ECv3 was serially diluted in 20 mM Tris-HCl, 0.15 M NaCl, 0.1% BSA, pH 8 and mixed with 5,000 HEK293 cells expressing membrane-associated full-length Ephrin B2. […]

[7] = molecular target: T7, B4ECv3-FC (EphB4 extracellular domain fused to human IgG1 Fc) (human, UniProt P54760 16-539); test: biochemical assays: Protein A-agarose and nitrocellulose binding of B2EC-AP; inhibition assays (FIGS. 6-7)
T7 construct: extracellular domain; also called B4EC-FC; not shown: Fc portion of human IgG1 (pIG vector)
T7 sequence (looked up): T2 sequence (looked up)
Protocol: Protein A-agarose based assay. 10 μl of Protein A-agarose were incubated in Eppendorf tubes with 50 μl of indicated amount of B4EC-FC diluted in binding buffer BB (20 mM Tris-HCl, 0.15 M NaCl, 0.1% BSA pH 8). After incubation for 30 min on shaking platform, Protein AAagarose beads were washed twice with 1.4 ml of BB, followed by application of 50 μl of B2ECAP reagent at the final concentration of 50 nM. Binding was performed for 30 min on shaking platform, and then tubes were centrifuged and washed once with 1.4 ml of BB. Colorimetric reaction of precipitated AP was measured after application of PNPP (FIG. 6).
Nitrocellulose based assay. B4EC-FC was serially diluted in 20 mM Tris-HCl, 0.15 M NaCl, 50 μg/ml BSA, pH 8. 2 μl of each fraction were applied onto nitrocellulose strip and spots were dried out for 3 min. Nitrocellulose strip was blocked with 5% non-fat milk for 30 min, followed by incubation with 5 nM B2EC-AP reagent. After 45 min incubation for binding, nitrocellulose was washed twice with 20 mM Tris-HCl, 0.15 M NaCl, 50 μg/ml BSA, pH 8 and color was developed by application of alkaline phosphatase substrate Sigma Fast (Sigma).

- binding result [1]: binds
B1: ephrin B2 on tumor cells of human Kaposi's sarcoma biopsy sections (ligand, UniProt P52799 28-333, looked up)
chain: IVLEPIYWNSSNSKFLPGQGLVLYPQIGDKLDIICPKVDSKTVGQYEYYKVYMVDKDQADRCTIKKENTPLLNCAKPDQDIKFTIKFQEFSPNLWGLEFQKNKDYYIISTSNGSLEGLDNQEGGVCQTRAMKILMKVGQDASSAGSTRNKDPTRRPELEAGTNGRSSTTSPFVKPNPGSSTDGNSAGHSGNNILGSEVALFAGIASGCIIFIVIIITLVVLLLKYRRRHRKHSPQHTTTLSLSTLATPKRSGNNNGSEPSDIIIPLRTADSVFCPHYEKVSGDYGHPVYIVQEMPPQSPANIYYKV
notes: whole, on cells

- binding result [2]: binds
- binding result [3]: binds
- binding result [4]: binds
- binding result [6]: binds
- binding result [7]: binds
B2: Ephrin B2-alkaline phosphatase (Ephrin B2-AP) fusion protein: Ephrin B2 ectodomain fused with placental alkaline phosphatase (ligand, human, UniProt P52799 28-229, looked up)
chain: IVLEPIYWNSSNSKFLPGQGLVLYPQIGDKLDIICPKVDSKTVGQYEYYKVYMVDKDQADRCTIKKENTPLLNCAKPDQDIKFTIKFQEFSPNLWGLEFQKNKDYYIISTSNGSLEGLDNQEGGVCQTRAMKILMKVGQDASSAGSTRNKDPTRRPELEAGTNGRSSTTSPFVKPNPGSSTDGNSAGHSGNNILGSEVALFA
notes: extracellular domain; Secreted reagent; also called B2EC-AP; B2ECAP; not shown: placental alkaline phosphatase of vector pAPTag2 (GenHunter)
- binding result [5]: no binding (tested: 50 nM B2-AP; 10-500 ng B4-ECD protein)
